# T1: human Tyro3 (rhTyro3/Dtk-Fc chimera) (Homo sapiens, UniProt Q06418)
# T1 construct: Soluble recombinant antigens corresponding to the extracellular domains of members of the human TAM receptor family; purchased R&D Systems 859-DK
# T1 sequence (Q06418 41-429 limits assumed): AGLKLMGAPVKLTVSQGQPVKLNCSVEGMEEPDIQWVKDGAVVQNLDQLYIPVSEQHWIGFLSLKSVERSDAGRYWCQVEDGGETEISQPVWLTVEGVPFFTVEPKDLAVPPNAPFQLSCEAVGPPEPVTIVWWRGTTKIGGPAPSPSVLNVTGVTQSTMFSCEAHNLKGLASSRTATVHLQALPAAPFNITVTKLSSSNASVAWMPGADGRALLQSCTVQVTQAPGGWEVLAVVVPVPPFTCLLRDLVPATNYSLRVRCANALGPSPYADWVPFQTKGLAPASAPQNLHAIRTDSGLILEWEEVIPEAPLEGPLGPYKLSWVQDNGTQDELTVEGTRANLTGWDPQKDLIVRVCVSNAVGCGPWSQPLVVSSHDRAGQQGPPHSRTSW
# Key:
# [1] = target: T2, human Axl (rhAxl-Fc chimera) (Homo sapiens, UniProt P30530); experiment: Biacore binding analysis on immobilized human Axl; conditions: 10 μg/mL, 25° C.
# T2 construct: Soluble recombinant antigens corresponding to the extracellular domains of members of the human TAM receptor family; purchased R&D Systems 154-AL
# Experimental: (§1) All binding experiments were performed using Biacore 3000 instrument (GE Healthcare) at 25° C. Soluble recombinant antigens corresponding to the extracellular domains of members of the human TAM receptor family, Axl (rhAxl-Fc chimera; R&D Systems, Cat. no. 154-AL), Mer (rhMer-Fc chimera; R&D Systems, Cat. no. 891-MR) and Tyro3 (rhTyro3/Dtk-Fc chimera; R&D Systems, Cat. no. 859-DK) were immobilized on the surface of CM5 sensor chip using amine coupling at the surface density of 393.0, 303.6 and 364.0 resonance units (RU), respectively. The Biacore run was performed in an automatic mode using Binding analysis wizard. Samples containing either MAb 10C9 or MAb 10G5 at concentration 10 μg/mL in HBS-EP buffer (GE Healthcare) were injected over the surfaces with immobilized antigens at flow rate of 30 μL/min for 3 min (association) followed by 5 min dissociation.
# (§2) The binding experiments were performed using Biacore 3000 instrument (GE Healthcare) at 25° C. The soluble recombinant antigens corresponding to human Axl (rhAxl-Fc chimera; R&D Systems, Cat. no. 154-AL), mouse Axl (rmAxl-Fc chimera; R&D Systems, R&D Systems; Cat. no. 854-AX) and human Tyro3 (rhTyro3/Dtk-Fc chimera; R&D Systems, Cat. no. 859-DK) were immobilized on the surface of CM5 sensor chip using amine coupling at the surface density of 1,308.0, 2,115.9 and 1,429.0 RU, respectively. The Biacore runs were performed in an automatic mode using Binding analysis wizard.
# (§3) The sample containing either MAb 10C9, MAb 10G5 or recombinant mouse (rm) Axl-ligand Gas6 (R&D Systems, Cat. no. 986-GS/CF) at concentration 10 μg/mL in HBS-EP buffer (GE Healthcare) was injected over the surfaces with immobilized antigens at flow rate of 30 μL/min for 3 min (association) followed by 5 min dissociation.
# The sequence of Axl receptor from cynomolgus monkey (Macaca fascicularis; SEQ ID NO.43) was retrieved from WO2009062690A1. Based on the sequence, recombinant extracellular domain of cyno-Axl was generated by transient expression in CHO cells as a fusion protein with human Fc. The recombinant cyno-Axl-Fc was purified to homogeneity using Protein A-Sepharose (GE Healthcare). The binding experiments were performed using Biacore 3000 instrument (GE Healthcare) at 25° C. The soluble recombinant antigens corresponding to human Axl (rhAxl-Fc chimera; R&D Systems, Cat. no. 154-AL) and cyno-Axl were immobilized on the surface of CM5 sensor chip using amine coupling at the surface density of 775 and 880 RU, respectively. The Biacore runs were performed in an automatic mode using Binding analysis wizard.
# The sample containing either MAb 10C9, MAb 10G5 or human Axl-specific MAb 5F11 (control) at concentration 10 μg/mL in HBS-EP buffer (GE Healthcare) was injected over the surfaces with immobilized antigens at flow rate of 30 μL/min for 3 min (association) followed by 5 min dissociation.
# In addition, the Axl-binding properties of the chimeric antibodies c10C9 and c10G5 were tested using Biacore 3000 instrument (GE Healthcare) and a sensor chip CM5 coated with human Axl (rhAxl-Fc chimera; R&D Systems, Cat. no. 154-AL) at the surface density of 1,308.0 RU. The Biacore runs were performed in an automatic mode using Binding analysis wizard. The samples comprising either the chimeric antibodies c10C9 and c10G5 or their murine counterparts at concentration 10 μg/mL in HBS-EP buffer (GE Healthcare) were injected over the surfaces with immobilized antigens at flow rate of 30 μL/min for 3 min (association) followed by 5 min dissociation.
# [2] = target: T1, human Tyro3 (rhTyro3/Dtk-Fc chimera); experiment: Biacore binding analysis on immobilized human Tyro3; conditions: 10 μg/mL, 25° C.
# Experimental: as §1, §2, §3
# [3] = target: T3, mouse Axl (rmAxl-Fc chimera) (Mus musculus, UniProt Q00993); experiment: Biacore binding analysis on immobilized mouse Axl; conditions: 10 μg/mL, 25° C.
# T3 construct: The soluble recombinant antigens corresponding to human Axl (rhAxl-Fc chimera; R&D Systems, Cat. no; 154-AL), mouse Axl (rmAxl-Fc chimera; purchased R&D Systems 854-AX
# T3 sequence (Q00993 19-445 limits assumed, change not shown): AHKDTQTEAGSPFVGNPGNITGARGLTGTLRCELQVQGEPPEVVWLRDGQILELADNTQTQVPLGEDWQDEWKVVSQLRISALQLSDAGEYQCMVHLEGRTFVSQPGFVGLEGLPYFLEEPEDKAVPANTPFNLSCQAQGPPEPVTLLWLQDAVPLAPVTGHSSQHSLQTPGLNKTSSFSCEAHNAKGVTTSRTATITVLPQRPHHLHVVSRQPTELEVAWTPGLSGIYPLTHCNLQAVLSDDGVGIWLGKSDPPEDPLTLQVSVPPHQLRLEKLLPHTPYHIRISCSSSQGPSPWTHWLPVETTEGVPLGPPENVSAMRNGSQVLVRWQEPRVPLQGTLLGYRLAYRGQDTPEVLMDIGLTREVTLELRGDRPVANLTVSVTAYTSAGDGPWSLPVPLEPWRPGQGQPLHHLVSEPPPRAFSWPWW
# Experimental: as §2, §3
# [4] = test system: Axl-positive breast cancer cell line MDA-MB-231; experiment: Flow cytometry binding to Axl-positive MDA-MB-231 cells; type: cell-based, human; conditions: different antibody concentrations, MFI
# Experimental: Different concentrations of mouse and chimeric antibodies were tested in flow cytometry for binding to triple-negative breast cancer cell line MDA-MB-231. The bound mouse and chimeric antibodies were detected with APC-conjugated donkey F(ab′)2 fragments specific for either mouse IgG (H+L), 1:500 dilution, or human IgG (H+L), 1:300 dilution, respectively (both from Jackson ImmunoResearch). The cell staining was measured using Accuri C6 flow cytometer (BD Biosciences). MFI, geometric mean fluorescence intensity.
# The purified chimeric antibodies (>95% purity) were analysed for binding to Axl-positive breast cancer cell line MDA-MB-231 in flow cytometry. For comparison, the parental mouse MAbs 10C9 and 10G5 were used. For flow cytometry, the adherent cells in culture were washed with PBS, detached by treatment with trypsin (0.25%) for 1 min and hitting culture dish for full detachment. Trypsin was quenched by adding into the tissue flask the complete medium followed by washing the cells with PBS. During the washing steps, the cells were collected by centrifugation at 200 g for 5 min. The antibody was diluted for total concentration in PBS containing 0.02% bovine serum albumin (BSA). Cell staining was performed using 200 μL of cell suspension comprising 10^5 cells for 20 min at room temperature. The cell-bound antibodies were detected with APC-conjugated donkey anti-human or anti-mouse, respectively, IgG (H+L) F(ab′)2 fragments (Jackson ImmunoResearch). After two washing steps with PBS/0.02% BSA, the cells were resuspended in 200 μL and kept on ice before analysis on Accuri C6 flow cytometer (BD Biosciences).
# [5] = target: T4, rhAxl-Fc chimera (recombinant human Axl) (Homo sapiens, UniProt P30530); experiment: Biacore surface plasmon resonance kinetic affinity determination on immobilized rhAxl-Fc; type: binding; conditions: chimeric antibodies, rhAxl immobilized on sensor chip, 25° C., 1:1 Langmuir binding model
# T4 construct: Soluble recombinant antigens corresponding to the extracellular domains of members of the human TAM receptor family; purchased R&D Systems 154-AL
# Experimental: (§4) Kinetic analysis of MAbs 10C9 and 10G5 interacting with rhAxl immobilized on the surface of the Biacore sensor chip. Overlay plots of sensograms for different antibody concentrations (1.3-666.7 nM for 10C9 and 0.3-166.7 nM for 10G5) are shown. The precise kinetic analysis was performed using BIA evaluation software and curve fitting according to 1:1 Langmuir binding model.
# as §4, with “chimeric antibodies c10C9” for “MAbs 10C9”, “c10G5” for “10G5”, “c10C9” for “10C9”, “c10G5)” for “10G5)”
# (§5) Affinity determination of anti-Axl antibodies 10C9 and 10G5 was performed at 25° C. by surface plasmon resonance measurements using Biacore 3000 instrument (GE Healthcare). As a solid antigen-coated surface, a sensor chip CM5 with immobilized rhAxl-Fc chimera (R&D Systems, Cat. no. 154-AL) at density 190 RU was used.
# (§6) For the kinetics measurements, different concentrations of anti-Axl antibodies (from 0.3 to 666.7 nM) in HBS-EP buffer (Biacore, Cat. no. BR-1001-88) were injected at flow rate of 30 μL/min with 3 min injection time followed by 5 min dissociation (buffer alone). After each cycle, the surface was regenerated by 30 sec injection of a regeneration solution (10 mM HCl, 1 M NaCl) at flow rate 50 μL/min.
# The kinetic association (on-rate, kon) and dissociation (off-rate, koff) rates were calculated using BIAevaluation software and 1:1 Langmuir binding model. The equilibrium dissociation constant (KD) was calculated as the koff/kon ratio. The half-life (t1/2) of the formed antibody-antigen complexes was calculated as the ln 2/koff ratio.
# as §5, with “of the chimeric” for “of”, “c10C9” for “10C9”, “c10G5” for “10G5”
# as §6, with “333.3” for “666.7”
binding to human Axl ([1]; listed as murine Gas 6),binding to human Tyro3 [2],binding to human Tyro3 ([2]; listed as murine Gas 6),binding to mouse Axl [3],binding to mouse Axl ([3]; listed as murine Gas 6),Off-rate (koff; s^−1) [5] [s⁻¹],On-rate (kon; M^−1s^−1) [5] [M⁻¹ s⁻¹],Molecule,binding to human Axl [1],binding to MDA-MB-231 cells in flow cytometry [4]
binds strongly,somewhat weaker binding,more weakly,strong binding,binds strongly,,,"mouse Gas6: recombinant mouse (rm) Axl-ligand Gas6 (R&D Systems), used as a control (protein) DQCTPNPCDKKGTHICQDLMGNFFCVCTDGWGGRLCDKDVNECVQKNGGCSQVCHNKPGSFQCACHSGFSLASDGQTCQDIDECTDSDTCGDARCKNLPGSYSCLCDEGYTYSSKEKTCQDVDECQQDRCEQTCVNSPGSYTCHCDGRGGLKLSPDMDTCEDILPCVPFSMAKSVKSLYLGRMFSGTPVIRLRFKRLQPTRLLAEFDFRTFDPEGVLFFAGGRSDSTWIVLGLRAGRLELQLRYNGVGRITSSGPTINHGMWQTISVEELERNLVIKVNKDAVMKIAVAGELFQLERGLYHLNLTVGGIPFKESELVQPINPRLDGCMRSWNWLNGEDSAIQETVKANTKMQCFSVTERGSFFPGNGFATYRLNYTRTSLDVGTETTWEVKVVARIRPATDTGVLLALVGDDDVVPISVALVDYHSTKKLKKQLVVLAVEDVALALMEIKVCDSQEHTVTVSLREGEATLEVDGTKGQSEVSTAQLQERLDTLKTHLQGSVHTYVGGLPEVSVISAPVTAFYRGCMTLEVNGKILDLDTASYKHSDITSHSCPPVEHAT",strong binding,
,,,,,0.000219,2.16e+06,"c10C9: chimeric (mouse variable/human constant) IgG1 counterpart of antibody 10C9 (antibody, left off: a dimerising Fc or GST, chimeric (mouse variable/human constant) IgG1 counterpart of antibody 10C9) heavy: QVQLQQPGPELVKPGASVKISCKTSDYNFTRYYIHWVKQRPGQGLEWIGWIYPGTGDSKYNEKFKGRATLTADTSSSTAYMQLSSQTSEDSAVYFCARNGNYWYFDVWGAGTAVTVSS light: DIVMTQAAPSGPVTPGESVSISCRSSKSLLHSNGNTYLYWFLQRPGQSPQLLIYRMSNLASGVPDRFSGSGSGTAFTLRISRVEAEDVGIYYCMQHREYPFTFGGGTKLEIK",bind immobilized Axl with profiles very similar to the binding profiles of the corresponding mouse antibodies,Dose-dependent binding

# Reference: US10208121B2, “Anti-Axl antagonistic antibodies” (BERGEN TEKNOLOGIOVERFORING AS, priority 2014, dated 2019)
